Values quoted from earlier work as cited in paper PMC5750235.

Molecular target: IgE (Homo sapiens) (UniProt P01854)
Sequence (P01854 whole entry): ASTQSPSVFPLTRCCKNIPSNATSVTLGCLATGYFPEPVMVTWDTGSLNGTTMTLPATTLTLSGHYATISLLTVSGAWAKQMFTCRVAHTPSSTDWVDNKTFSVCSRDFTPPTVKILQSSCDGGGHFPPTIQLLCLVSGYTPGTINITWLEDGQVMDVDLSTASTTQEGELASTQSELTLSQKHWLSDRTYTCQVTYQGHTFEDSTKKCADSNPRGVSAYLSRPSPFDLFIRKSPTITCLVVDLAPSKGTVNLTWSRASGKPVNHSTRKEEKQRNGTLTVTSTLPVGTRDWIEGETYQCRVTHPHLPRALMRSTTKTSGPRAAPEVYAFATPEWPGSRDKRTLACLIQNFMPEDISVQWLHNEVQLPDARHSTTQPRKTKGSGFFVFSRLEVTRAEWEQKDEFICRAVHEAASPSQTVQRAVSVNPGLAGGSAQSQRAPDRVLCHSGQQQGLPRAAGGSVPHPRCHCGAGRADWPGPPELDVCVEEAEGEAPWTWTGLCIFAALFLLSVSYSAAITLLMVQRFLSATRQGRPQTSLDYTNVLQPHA

CD23, sequence (P06734 48-321): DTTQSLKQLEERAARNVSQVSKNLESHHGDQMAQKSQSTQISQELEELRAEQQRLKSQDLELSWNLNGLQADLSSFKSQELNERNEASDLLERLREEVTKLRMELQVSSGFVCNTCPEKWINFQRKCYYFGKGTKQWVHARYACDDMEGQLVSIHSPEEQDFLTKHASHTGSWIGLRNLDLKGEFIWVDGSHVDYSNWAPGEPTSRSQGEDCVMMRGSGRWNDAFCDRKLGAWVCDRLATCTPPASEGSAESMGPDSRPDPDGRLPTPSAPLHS

Kd: 2000 nM
Substance: CD23 (from UniProt P06734)
